Experimental data: US10487307B2, “Culture method for pluripotent stem cells” (FUJIFILM CORPORATION, priority 2013, dated 2019)

Assays:
[1] = Aggregation after dialysis of purified polypeptide solution; type: physicochemical; design: key: G: The formation of an aggregate was not observed.; A: The formation of particles having a particle size of about 100 nm was observed.; B: The formation of an aggregation of particles having a particle size of equal to or greater than 1 mm was visually observed
Method: For RCP-1 to RCP-11, each of the purified polypeptide solutions was dialyzed using Slide-A-Lizer (3.5 K MWCO.). Basically, by using a dialysis buffer (PBS, 1.5 M NaCl, 0.5 M L-arginine, 1 mM EDTA, pH 7.4) as an outer dialysate, urea was removed by stepwise dialysis. The concentration of the end-product of dialysis was calculated from the absorbence at 280 nm by using NanoDrop (Thermo Fisher Scientific Inc.).
Whether or not aggregation was occurred was evaluated based on the scale of A, and B as shown below.
G: The formation of an aggregate was not observed.
A: The formation of particles having a particle size of about 100 nm was observed.
B: The formation of an aggregation of particles having a particle size of equal to or greater than 1 mm was visually observed.

human iPS cells ("Tic") = experiment: Cell adhesiveness evaluation 1 (ALP activity of adhesive iPS cells); type: cell-based; conditions: 30,000 cells/well, 24 hours, natural vitronectin (sample 15) = 100%, n=3
Method: The cell adhesiveness of human iPS cells (“Tic”: Cell No. JCRB 1331: from National Institute of Biomedical Innovation. [567-0085, 7-6-8 Asagi Saito Ibaraki-City Osaka]) with respect to the aforementioned polypeptides was evaluated in the following manner.
As feeder cells for retaining the human iPS cells, EmbryoMax (registered trademark) (early mouse embryonic fibroblasts: resistant to hygromycin, treated with mitomycin C, derived from C57/BL6, third passage) (Millipore Corporation) was used. By using DMEM (Invitrogen) and a 10% (v/v) fetal bovine serum medium, the feeder cells were cultured for 24 hours and attached to a T25 flask (Corning Incorporated). As a medium for the human iPS cells, the one obtained by adding FGF-2 (Sigma-Aldrich Co, LLC.) to a medium composed as shown in Table 6 at a final concentration of 10 ng/ml was used.
By using the aforementioned medium, the human iPS cells were retained and cultured in a 5% (v/v, the same unit will be used hereinafter) CO2 incubator at 37° C. Except for the day after the seeding of the iPS cells, the medium was replaced every day. The subculture operation was performed by exfoliating the cells by using Dispase II (neutral protease Grade II, Roche) and separating the cells in an appropriate size by a pipetting operation.
The iPS cells cultured as described above were treated with TrypLE Select (Invitrogen) for 5 minutes at 37° C. and separated into a single cell. After being subjected to centrifugation for 2 minutes at 300 rpm, the cells were collected and suspended in TeSR2 (a medium not containing a heterogeneous animal-derived component and a serum component, STEMCELL Technologies.) containing Y-27362 ((R)-(+)-trans-N-(4-pyridyl)-4-(1-aminoethyl)-cyclohexane carboxamide.2HCl.H2O, an Rho binding kinase inhibitor, Wako Pure Chemical Industries, Ltd.) at a final concentration of 10 μM.
Each of RCP-1 to RCP-11, RCP-21, RCP-25, and RCP-26 as control, human vitronectin (extracted from human serum, BD Biosciences), and recombinant laminin (rLaminin-5: Oriental Yeast Co., ltd. and Human Recombinant Laminin-511: BIOLAMINA AB) was added to and suspended in a predetermined buffer (a dialysis buffer used in <GRAVY value and aggregation characteristics> described above for RCP-1 to RCP-11, and PBS for RCP-21, RCP-25, human vitronectin, and recombinant laminin) at the concentration shown in Table 7, thereby preparing samples 1 to 17. The samples were added to the respective wells of a 96-well plate and adsorbed onto the plate by being held for 2 hours at 37° C.
Into the respective wells of the 96-well plate treated with the peptides, iPS cells were seeded at a cell density of 30,000 cells/well. After the cells were cultured for 24 hours, the nonadhesive cells were washed off with PBS, and only the adhesive cells were immobilized by using 4% (v/v) paraformaldehyde (Wako Pure Chemical Industries, Ltd.). By using an Attophos (registered trademark) AP Fluorescent Substrate System (Promega Corporation), the ALP activity was calculated, and from the calibration curve, the number of undifferentiated iPS cells having the ALP activity was calculated. In Table 7, the cell adhesion rate is expressed as a ratio calculated by regarding the cell adhesion rate obtained from the sample 15 using natural vitronectin as being 100%. n=3.

iPS cells = experiment: Growth evaluation, number of cells after 3 days; type: cell-based, human; conditions: 5,000 cells/well, sample 1 (RCP-1) = 100%
Method: By adding RCP-1 to RCP-11 and Human Recombinant Laminin-511 as control at the concentration shown in Table 9, samples 1 to 12 were prepared. The samples were seeded into a 96-well plate, onto which each of the polypeptides was adsorbed in the same manner as in <Cell adhesiveness evaluation 1>, at a ratio of 5,000 cells/well and cultured for 3 days in a CO2 incubator at 37° C. The number of cells after 3 days was calculated in the same manner as in <Cell adhesiveness evaluation 1>. In Table 9, the number of cells after 3 days is expressed as a ratio calculated by regarding the number of cells obtained by using the sample 1 as being 100%.

Row | Molecule | Aggregation [1] | Cell adhesion rate (%) (human iPS cells ("Tic"); added amount 5 μg/cm^2) | Number of cells after 3 days (%) (iPS cells; added amount 5 μg/cm^2) | Cell adhesion rate (%) (human iPS cells ("Tic"); added amount 20 μg/cm^2) | Number of cells after 3 days (%) (iPS cells; added amount 20 μg/cm^2)
1 | RCP-8: recombinant polypeptide for culture, SEQ ID NO: 22; vitronectin positions 1-55, 269-373, 374-379, C274S (protein, Vitronectin-derived Recombinant Protein (RCP-8), vitronectin positions 1-55, 269-373, 374-379, C274S) MDQESCKGRCTEGFNVDKKCQCDELCSYYQSCCTDYTAECKPQVTRGDVFTMPEDESQEESEGSSLSAVFEHFAMMQRDSWEDIFELLFWGRTSAGTRQPQFISRDWHGVPGQVDAAMAGRIYISGMAPRPSLAKKQRFRHRNRKGYRSQRGHSRGRNQNSRRPSR | A | 89.2 ± 1.4 | 171.0 | – | –
2 | RCP-2: recombinant polypeptide for culture, SEQ ID NO: 16; vitronectin positions 1-55 and 342-373 (protein, Vitronectin-derived Recombinant Protein (RCP-2)) MDQESCKGRCTEGFNVDKKCQCDELCSYYQSCCTDYTAECKPQVTRGDVFTMPEDEPRPSLAKKQRFRHRNRKGYRSQRGHSRGRNQN | G | – | – | 98.7 ± 6.2 | 81.7
3 | RCP-7: recombinant polypeptide for culture, SEQ ID NO: 21; vitronectin positions 1-55, 269-373, C274S (protein, Vitronectin-derived Recombinant Protein (RCP-7), vitronectin positions 1-55, 269-373, C274S) MDQESCKGRCTEGFNVDKKCQCDELCSYYQSCCTDYTAECKPQVTRGDVFTMPEDESQEESEGSSLSAVFEHFAMMQRDSWEDIFELLFWGRTSAGTRQPQFISRDWHGVPGQVDAAMAGRIYISGMAPRPSLAKKQRFRHRNRKGYRSQRGHSRGRNQN | A | 88.6 ± 8.1 | 89.9 | – | –
4 | RCP-4: recombinant polypeptide for culture, SEQ ID NO: 18; vitronectin positions 1-55, 312-341, 342-373 (protein, Vitronectin-derived Recombinant Protein (RCP-4)) MDQESCKGRCTEGFNVDKKCQCDELCSYYQSCCTDYTAECKPQVTRGDVFTMPEDEQPQFISRDWHGVPGQVDAAMAGRIYISGMAPRPSLAKKQRFRHRNRKGYRSQRGHSRGRNQN | G | – | – | 100.1 ± 4.5 | 120.7
5 | RCP-10: recombinant polypeptide for culture, SEQ ID NO: 24; vitronectin positions 1-55, 269-373, 374-399, C274S (protein, Vitronectin-derived Recombinant Protein (RCP-10), vitronectin positions 1-55, 269-373, 374-399, C274S) MDQESCKGRCTEGFNVDKKCQCDELCSYYQSCCTDYTAECKPQVTRGDVFTMPEDESQEESEGSSLSAVFEHFAMMQRDSWEDIFELLFWGRTSAGTRQPQFISRDWHGVPGQVDAAMAGRIYISGMAPRPSLAKKQRFRHRNRKGYRSQRGHSRGRNQNSRRPSRATWLSLFSSEESNLGANNYD | B (The formation of an aggregation of particles having a particle size of equal to or greater than 1 mm was visually observed.) | – | – | 93.0 ± 7.8 | 101.9
6 | RCP-9: recombinant polypeptide for culture, SEQ ID NO: 23; vitronectin positions 1-55, 269-373, 374-389, C274S (protein, Vitronectin-derived Recombinant Protein (RCP-9), vitronectin positions 1-55, 269-373, 374-389, C274S) MDQESCKGRCTEGFNVDKKCQCDELCSYYQSCCTDYTAECKPQVTRGDVFTMPEDESQEESEGSSLSAVFEHFAMMQRDSWEDIFELLFWGRTSAGTRQPQFISRDWHGVPGQVDAAMAGRIYISGMAPRPSLAKKQRFRHRNRKGYRSQRGHSRGRNQNSRRPSRATWLSLFSSE | B (The formation of an aggregation of particles having a particle size of equal to or greater than 1 mm was visually observed.) | – | – | 95.5 ± 10.2 | 105.8
7 | RCP-3: recombinant polypeptide for culture, SEQ ID NO: 17; vitronectin positions 1-55, 322-341, 342-373 (protein, Vitronectin-derived Recombinant Protein (RCP-3)) MDQESCKGRCTEGFNVDKKCQCDELCSYYQSCCTDYTAECKPQVTRGDVFTMPEDEGVPGQVDAAMAGRIYISGMAPRPSLAKKQRFRHRNRKGYRSQRGHSRGRNQN | G | – | – | 106.1 ± 4.5 | 109.7
8 | RCP-6: recombinant polypeptide for culture, SEQ ID NO: 20; vitronectin positions 1-55, 269-459, C274S (protein, Vitronectin-derived Recombinant Protein (RCP-6), vitronectin positions 1-55, 269-459, C274S) MDQESCKGRCTEGFNVDKKCQCDELCSYYQSCCTDYTAECKPQVTRGDVFTMPEDESQEESEGSSLSAVFEHFAMMQRDSWEDIFELLFWGRTSAGTRQPQFISRDWHGVPGQVDAAMAGRIYISGMAPRPSLAKKQRFRHRNRKGYRSQRGHSRGRNQNSRRPSRATWLSLFSSEESNLGANNYDDYRMDWLVPATSEPIQSVFFFSGDKYYRVNLRTRRVDTVDPPYPRSIAQYWLGSPAPGHL | A | – | – | 92.8 ± 4.4 | 70.5
